Data from patent US20120301477A1.

Biological target: CCR9 (chemokine (C-C motif) receptor 9) (human) (UniProt P51686)
Assay: cell-based or functional assay

UniProt P51686, sequence (P51686 whole entry): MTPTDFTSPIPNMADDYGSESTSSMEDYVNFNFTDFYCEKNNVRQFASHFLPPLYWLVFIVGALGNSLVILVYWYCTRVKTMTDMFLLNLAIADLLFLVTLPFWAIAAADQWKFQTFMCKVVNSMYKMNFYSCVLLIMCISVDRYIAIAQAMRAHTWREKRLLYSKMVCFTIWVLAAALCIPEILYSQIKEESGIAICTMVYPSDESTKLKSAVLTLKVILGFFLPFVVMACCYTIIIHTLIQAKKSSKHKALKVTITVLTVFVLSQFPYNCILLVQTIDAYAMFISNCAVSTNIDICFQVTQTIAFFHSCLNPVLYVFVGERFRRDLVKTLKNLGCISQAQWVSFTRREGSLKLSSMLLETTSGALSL

Substance “Human recombinant CCL25 (from UniProt O15444 24-150) (ligand)” has an impairment of migratory response to CCL25 after CCR9 siRNA, melanoma line ML of 76% and an impairment of migratory response to CCL25 after CCR9 siRNA, melanoma line MP of 63%.
